Laboratory results published in US20240270860A1.

Experiments:
E2LS2…2RPG = molecular target: T1, E2LS2…2RPG; assay: peptide-array ELISA (CYS.S)
T1 sequence (peptide, 2 = Cys(ACM)): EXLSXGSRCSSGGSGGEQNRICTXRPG

PE2LS2…2RPGW = molecular target: T2, PE2LS2…2RPGW; assay: peptide-array ELISA (CYS.S)
T2 sequence (peptide, 2 = Cys(ACM)): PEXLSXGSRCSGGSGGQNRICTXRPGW

E2LS2…2RP = molecular target: T3, E2LS2…2RP; assay: peptide-array ELISA (CYS.S)
T3 sequence (peptide, 2 = Cys(ACM)): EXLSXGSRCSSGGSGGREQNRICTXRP

2LS2…2RP = molecular target: T4, 2LS2…2RP; assay: peptide-array ELISA (CYS.S)
T4 sequence (peptide, 2 = Cys(ACM)): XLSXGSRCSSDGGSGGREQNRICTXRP

…2…2RPG = molecular target: T5, …2…2RPG; assay: peptide-array ELISA (CYS.S)
T5 sequence (peptide, 2 = Cys(ACM)): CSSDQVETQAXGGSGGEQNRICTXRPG

…2RPG [1] = molecular target: T6, …2RPG; assay: peptide-array ELISA (CYS.S)
T6 sequence (peptide, 2 = Cys(ACM)): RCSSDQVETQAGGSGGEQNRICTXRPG

…2…2R = molecular target: T7, …2…2R; assay: peptide-array ELISA (CYS.S)
T7 sequence (peptide, 2 = Cys(ACM)): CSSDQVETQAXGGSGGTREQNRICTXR

S2…2RPGW = molecular target: T8, S2…2RPGW; assay: peptide-array ELISA (CYS.S)
T8 sequence (peptide, 2 = Cys(ACM)): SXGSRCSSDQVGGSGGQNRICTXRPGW

2…2RP = molecular target: T9, 2…2RP; assay: peptide-array ELISA (CYS.S)
T9 sequence (peptide, 2 = Cys(ACM)): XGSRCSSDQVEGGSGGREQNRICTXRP

VPE2LS2…2RP = molecular target: T10, VPE2LS2…2RP; assay: peptide-array ELISA (CYS.S)
T10 sequence (peptide, 2 = Cys(ACM)): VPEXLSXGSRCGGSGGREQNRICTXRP

LS2…2RPGW = molecular target: T11, LS2…2RPGW; assay: peptide-array ELISA (CYS.S)
T11 sequence (peptide, 2 = Cys(ACM)): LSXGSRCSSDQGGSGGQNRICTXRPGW

…2…2RPGW = molecular target: T12, …2…2RPGW; assay: peptide-array ELISA (CYS.S)
T12 sequence (peptide, 2 = Cys(ACM)): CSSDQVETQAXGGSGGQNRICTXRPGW

…2…2RP = molecular target: T13, …2…2RP; assay: peptide-array ELISA (CYS.S)
T13 sequence (peptide, 2 = Cys(ACM)): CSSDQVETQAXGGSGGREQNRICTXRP

…2RPGW [2] = molecular target: T14, …2RPGW; assay: peptide-array ELISA (CYS.S)
T14 sequence (peptide, 2 = Cys(ACM)): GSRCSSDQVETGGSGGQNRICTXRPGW

…2RP [3] = molecular target: T15, …2RP; assay: peptide-array ELISA (CYS.S)
T15 sequence (peptide, 2 = Cys(ACM)): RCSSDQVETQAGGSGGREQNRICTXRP

LS2…2RP = molecular target: T16, LS2…2RP; assay: peptide-array ELISA (CYS.S)
T16 sequence (peptide, 2 = Cys(ACM)): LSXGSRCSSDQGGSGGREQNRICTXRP

2…2RPGW = molecular target: T17, 2…2RPGW; assay: peptide-array ELISA (CYS.S)
T17 sequence (peptide, 2 = Cys(ACM)): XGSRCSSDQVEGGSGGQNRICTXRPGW

…2R [4] = molecular target: T18, …2R; assay: peptide-array ELISA (CYS.S)
T18 sequence (peptide, 2 = Cys(ACM)): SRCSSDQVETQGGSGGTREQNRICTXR

VPE2LS2…2RPG = molecular target: T19, VPE2LS2…2RPG; assay: peptide-array ELISA (CYS.S)
T19 sequence (peptide, 2 = Cys(ACM)): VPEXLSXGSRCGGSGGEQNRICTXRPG

S2…2RPG = molecular target: T20, S2…2RPG; assay: peptide-array ELISA (CYS.S)
T20 sequence (peptide, 2 = Cys(ACM)): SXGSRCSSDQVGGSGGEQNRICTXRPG

…2RP [5] = molecular target: T21, …2RP; assay: peptide-array ELISA (CYS.S); remark: listed apart in the source
T21 sequence (peptide, 2 = Cys(ACM)): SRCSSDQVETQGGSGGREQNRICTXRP

…2RP [6] = molecular target: T22, …2RP; assay: peptide-array ELISA (CYS.S); remark: listed apart in the source
T22 sequence (peptide, 2 = Cys(ACM)): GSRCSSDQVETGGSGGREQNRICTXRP

PE2LS2…2RPG = molecular target: T23, PE2LS2…2RPG; assay: peptide-array ELISA (CYS.S)
T23 sequence (peptide, 2 = Cys(ACM)): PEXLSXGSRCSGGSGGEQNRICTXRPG

PE2LS2…2RP = molecular target: T24, PE2LS2…2RP; assay: peptide-array ELISA (CYS.S)
T24 sequence (peptide, 2 = Cys(ACM)): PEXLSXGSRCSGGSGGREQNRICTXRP

2LS2…2RPGW = molecular target: T25, 2LS2…2RPGW; assay: peptide-array ELISA (CYS.S)
T25 sequence (peptide, 2 = Cys(ACM)): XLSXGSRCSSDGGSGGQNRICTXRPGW

VPE2LS2…2RPGW = molecular target: T26, VPE2LS2…2RPGW; assay: peptide-array ELISA (CYS.S)
T26 sequence (peptide, 2 = Cys(ACM)): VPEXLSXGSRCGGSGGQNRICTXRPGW

LS2…2RPG = molecular target: T27, LS2…2RPG; assay: peptide-array ELISA (CYS.S)
T27 sequence (peptide, 2 = Cys(ACM)): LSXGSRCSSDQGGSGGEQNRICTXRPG

…2R [7] = molecular target: T28, …2R; assay: peptide-array ELISA (CYS.S); remark: listed apart in the source
T28 sequence (peptide, 2 = Cys(ACM)): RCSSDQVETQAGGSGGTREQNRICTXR

…2RPG [8] = molecular target: T29, …2RPG; assay: peptide-array ELISA (CYS.S); remark: listed apart in the source
T29 sequence (peptide, 2 = Cys(ACM)): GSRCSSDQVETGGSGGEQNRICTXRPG

…2RPGW [9] = molecular target: T30, …2RPGW; assay: peptide-array ELISA (CYS.S); remark: listed apart in the source
T30 sequence (peptide, 2 = Cys(ACM)): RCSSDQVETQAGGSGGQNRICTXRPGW

E2LS2…2RPGW = molecular target: T31, E2LS2…2RPGW; assay: peptide-array ELISA (CYS.S)
T31 sequence (peptide, 2 = Cys(ACM)): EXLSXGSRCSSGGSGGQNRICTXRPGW

2LS2…2RPG = molecular target: T32, 2LS2…2RPG; assay: peptide-array ELISA (CYS.S)
T32 sequence (peptide, 2 = Cys(ACM)): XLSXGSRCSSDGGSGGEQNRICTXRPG

S2…2RP = molecular target: T33, S2…2RP; assay: peptide-array ELISA (CYS.S)
T33 sequence (peptide, 2 = Cys(ACM)): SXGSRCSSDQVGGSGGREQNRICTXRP

…2RPG [10] = molecular target: T34, …2RPG; assay: peptide-array ELISA (CYS.S); remark: listed apart in the source
T34 sequence (peptide, 2 = Cys(ACM)): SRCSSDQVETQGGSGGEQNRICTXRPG

2…2RPG = molecular target: T35, 2…2RPG; assay: peptide-array ELISA (CYS.S)
T35 sequence (peptide, 2 = Cys(ACM)): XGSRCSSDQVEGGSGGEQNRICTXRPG

…2RPGW [11] = molecular target: T36, …2RPGW; assay: peptide-array ELISA (CYS.S); remark: listed apart in the source
T36 sequence (peptide, 2 = Cys(ACM)): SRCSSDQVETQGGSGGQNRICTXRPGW

2LS2…2RPGWY = molecular target: T37, 2LS2…2RPGWY; assay: peptide-array ELISA (CYS.S) [Continued]
T37 sequence (peptide, 2 = Cys(ACM)): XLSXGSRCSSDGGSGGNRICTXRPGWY

[12] = molecular target: T38, QEGCRL2…; assay: peptide-array ELISA (CYS.S) [Continued]
T38 sequence (peptide, 2 = Cys(ACM)): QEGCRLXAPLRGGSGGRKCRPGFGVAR

VPE2LS2…2RPGWY = molecular target: T39, VPE2LS2…2RPGWY; assay: peptide-array ELISA (CYS.S) [Continued]
T39 sequence (peptide, 2 = Cys(ACM)): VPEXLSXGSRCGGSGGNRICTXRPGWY

Raw luminescence data (E2LS2…2RPG): 152 | Raw luminescence data (PE2LS2…2RPGW): 543 | Raw luminescence data (E2LS2…2RP): 323 | Raw luminescence data (2LS2…2RP): 262 | Raw luminescence data (…2…2RPG): 248 | Raw luminescence data (…2RPG [1]): 183 | Raw luminescence data (…2…2R): 179 | Raw luminescence data (S2…2RPGW): 364 | Raw luminescence data (2…2RP): 228 | Raw luminescence data (VPE2LS2…2RP): 318 | Raw luminescence data (LS2…2RPGW): 291 | Raw luminescence data (…2…2RPGW): 493 | Raw luminescence data (…2…2RP): 250 | Raw luminescence data (…2RPGW [2]): 466 | Raw luminescence data (…2RP [3]): 130 | Raw luminescence data (LS2…2RP): 261 | Raw luminescence data (2…2RPGW): 493 | Raw luminescence data (…2R [4]): 177 | Raw luminescence data (VPE2LS2…2RPG): 225 | Raw luminescence data (S2…2RPG): 235 | Raw luminescence data (…2RP [5]): 157 | Raw luminescence data (…2RP [6]): 166 | Raw luminescence data (PE2LS2…2RPG): 229 | Raw luminescence data (PE2LS2…2RP): 291 | Raw luminescence data (2LS2…2RPGW): 345 | Raw luminescence data (VPE2LS2…2RPGW): 577 | Raw luminescence data (LS2…2RPG): 244 | Raw luminescence data (…2R [7]): 125 | Raw luminescence data (…2RPG [8]): 202 | Raw luminescence data (…2RPGW [9]): 507 | Raw luminescence data (E2LS2…2RPGW): 482 | Raw luminescence data (2LS2…2RPG): 214 | Raw luminescence data (S2…2RP): 247 | Raw luminescence data (…2RPG [10]): 222 | Raw luminescence data (2…2RPG): 221 | Raw luminescence data (…2RPGW [11]): 402 | Raw luminescence data (2LS2…2RPGWY): 878 | Raw luminescence data [12]: 426 | Raw luminescence data (VPE2LS2…2RPGWY): 853
B1: antagonistic TNFR2 antibody TNFRAB1 (antibody, V domains shown)
VH: EVQLQESGGGLVKPGGSLKLSCAASGFTFSSYVMSWVRQTPEKRLEWVATISSGGSYTYYPDSVKGRFTISRDNAKNTLYLQMSSLRSEDTAMYYCARQRVDGYSSYWYFDVWGAGTAVTVSS
VL: DIVLTQSPAIMSASPGEKVTITCSASSSVYYMYWFQQKPGTSPKLWIYSTSNLASGVPVRFSGSGSGTSYSLTISRMEAEDAATYYCQQRRNYPYTFGGGTKLEIKR
